This is an account of results in patent EP4786492A1 (Simcere Zaiming Pharmaceutical Co., Ltd., dated 2026).

Test [1] deals with T1, human DLL3-his protein (human, UniProt Q9NYJ7 27-492).
T1 construct: also called human DLL3 protein; DLL3 antigen protein; not shown: His tag
T1 sequence: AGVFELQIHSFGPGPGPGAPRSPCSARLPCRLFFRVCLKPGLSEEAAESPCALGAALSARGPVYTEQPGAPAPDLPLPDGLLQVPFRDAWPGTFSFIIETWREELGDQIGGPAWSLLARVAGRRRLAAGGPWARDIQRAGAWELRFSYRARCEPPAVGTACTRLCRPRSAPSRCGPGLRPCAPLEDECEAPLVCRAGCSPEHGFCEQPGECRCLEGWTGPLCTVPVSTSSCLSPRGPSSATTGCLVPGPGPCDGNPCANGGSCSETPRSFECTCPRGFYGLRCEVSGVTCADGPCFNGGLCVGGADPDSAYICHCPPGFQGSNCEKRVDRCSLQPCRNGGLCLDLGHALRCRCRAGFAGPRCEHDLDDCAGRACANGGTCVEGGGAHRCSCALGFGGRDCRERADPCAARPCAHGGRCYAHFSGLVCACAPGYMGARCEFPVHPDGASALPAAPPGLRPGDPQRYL
Put plainly: ELISA.

Test [2] has as its target T2, human DLL3 endogenously expressed on SHP77 and NCI-H82 cells (human, UniProt Q9NYJ7 27-618).
T2 construct: whole, on cells; cells endogenously expressing DLL3; also called SHP77 cells; SHP-77 cells
T2 sequence (looked up): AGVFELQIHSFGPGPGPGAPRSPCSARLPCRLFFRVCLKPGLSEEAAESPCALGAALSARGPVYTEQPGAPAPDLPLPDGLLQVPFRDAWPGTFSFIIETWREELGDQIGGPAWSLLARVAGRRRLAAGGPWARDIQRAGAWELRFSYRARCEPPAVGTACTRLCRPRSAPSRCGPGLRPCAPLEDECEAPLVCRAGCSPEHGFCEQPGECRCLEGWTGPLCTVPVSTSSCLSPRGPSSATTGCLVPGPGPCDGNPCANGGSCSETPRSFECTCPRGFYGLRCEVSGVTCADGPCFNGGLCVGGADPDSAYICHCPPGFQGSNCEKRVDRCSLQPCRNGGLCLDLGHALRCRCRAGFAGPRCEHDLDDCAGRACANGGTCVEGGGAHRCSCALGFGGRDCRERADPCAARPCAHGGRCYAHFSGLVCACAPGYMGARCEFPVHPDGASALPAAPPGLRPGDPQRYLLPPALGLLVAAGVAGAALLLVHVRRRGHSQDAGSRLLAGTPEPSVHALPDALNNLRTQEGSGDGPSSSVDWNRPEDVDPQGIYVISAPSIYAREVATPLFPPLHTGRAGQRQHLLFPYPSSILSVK
Put plainly: FACS, SHP77 and NCI-H82 cells. Background: Flow cytometry measures light scatter and fluorescence of single cells or particles in a stream.

For test [3], the target named is T3, human DLL3 on CHO-K1 hDLL3 cells (human, UniProt Q9NYJ7 27-492).
T3 construct: also called human DLL3 recombinant cell line
T3 sequence: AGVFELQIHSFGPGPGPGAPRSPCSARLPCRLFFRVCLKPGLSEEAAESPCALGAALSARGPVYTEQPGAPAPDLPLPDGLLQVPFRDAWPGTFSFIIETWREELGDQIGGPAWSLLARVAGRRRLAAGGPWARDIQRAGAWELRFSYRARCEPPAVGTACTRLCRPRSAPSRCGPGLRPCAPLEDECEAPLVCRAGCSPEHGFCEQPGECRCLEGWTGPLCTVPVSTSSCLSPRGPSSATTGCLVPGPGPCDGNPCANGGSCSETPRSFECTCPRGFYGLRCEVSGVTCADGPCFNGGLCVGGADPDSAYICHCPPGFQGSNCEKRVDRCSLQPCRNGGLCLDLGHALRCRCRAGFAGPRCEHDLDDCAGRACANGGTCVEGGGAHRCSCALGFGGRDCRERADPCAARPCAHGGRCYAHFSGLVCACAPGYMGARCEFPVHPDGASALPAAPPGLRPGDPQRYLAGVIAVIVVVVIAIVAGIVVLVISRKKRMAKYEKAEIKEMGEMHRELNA
Description: FACS, CHO-K1 hDLL3 cells.

For test [4], the target named is T4, mouse DLL3 on CHO K1-mDLL3 cells (mouse, UniProt O88516 33-490).
T4 construct: also called mouse DLL3 recombinant cell line
T4 sequence: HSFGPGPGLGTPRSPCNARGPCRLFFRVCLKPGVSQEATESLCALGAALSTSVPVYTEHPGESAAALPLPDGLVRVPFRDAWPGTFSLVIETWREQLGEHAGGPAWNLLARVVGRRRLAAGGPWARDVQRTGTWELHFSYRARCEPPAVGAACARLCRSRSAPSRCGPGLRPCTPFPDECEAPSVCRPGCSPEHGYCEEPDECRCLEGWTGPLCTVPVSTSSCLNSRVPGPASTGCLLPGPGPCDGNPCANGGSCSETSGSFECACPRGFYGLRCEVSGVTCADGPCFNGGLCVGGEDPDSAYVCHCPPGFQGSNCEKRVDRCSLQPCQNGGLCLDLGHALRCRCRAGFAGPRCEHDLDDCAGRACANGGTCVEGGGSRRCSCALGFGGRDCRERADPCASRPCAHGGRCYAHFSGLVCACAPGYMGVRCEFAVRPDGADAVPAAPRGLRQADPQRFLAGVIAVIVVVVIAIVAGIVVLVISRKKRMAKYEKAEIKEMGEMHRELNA
Put plainly: FACS, CHO K1-mDLL3 cells.

Test [5] deals with T5, monkey DLL3 on CHO K1-cyno DLL3 cells (cynomolgus monkey).
T5 construct: also called monkey DLL3 recombinant cell line
T5 chain: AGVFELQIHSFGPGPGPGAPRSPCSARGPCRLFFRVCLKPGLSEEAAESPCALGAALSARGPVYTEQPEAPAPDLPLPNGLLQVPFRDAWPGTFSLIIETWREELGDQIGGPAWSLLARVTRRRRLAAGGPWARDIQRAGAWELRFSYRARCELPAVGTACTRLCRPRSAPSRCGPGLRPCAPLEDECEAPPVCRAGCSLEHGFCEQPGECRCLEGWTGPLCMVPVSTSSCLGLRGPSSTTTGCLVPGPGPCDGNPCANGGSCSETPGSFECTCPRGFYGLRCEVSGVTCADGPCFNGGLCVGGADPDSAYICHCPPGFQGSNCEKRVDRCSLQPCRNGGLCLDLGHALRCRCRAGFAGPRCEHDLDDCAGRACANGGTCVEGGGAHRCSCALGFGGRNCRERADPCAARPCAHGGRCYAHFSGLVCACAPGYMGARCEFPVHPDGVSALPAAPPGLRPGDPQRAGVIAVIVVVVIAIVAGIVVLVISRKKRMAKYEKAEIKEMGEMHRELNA
Description: FACS, CHO K1-cyno DLL3 cells.

B1: Hab008L1H2a-hFc (Fc fusion)
scFv (part 1 of 2): DIQMTQSPSSLSASVGDRVTITCKASQNVGTAVAWYQQKPGKSPKLLIFSASIRYTGVPSRFSGSGSGTDFTLTISSLQPEDFATYYCQQYSSSPYTFGGGTKVEIK
scFv (part 2 of 2): EVQLVQSGAEVKKPGASVKVSCKASGYTFTDYYMNWVRQAPGQRLEWMGIINPYNSGTSYNQKFRGRVTLTVDKSASTAYMELSSLRSEDTAVYYCSRYDYDYDVEGAMDYWGQGTTVTVSS
notes: humanized mab008, VL-linker-VH-human IgG1 Fc; also called Hab008 humanized molecule; not shown: linker; human IgG1 Fc fragment
As to B1, the binding result in test [1] is “binds”; in test [2] it was “binds”; in test [3], “binds”; in test [4] it was “no binding”; in test [5], “binds”.

B2: Hab008L3H2a-hFc (Fc fusion)
scFv (part 1 of 2): DIVMTQSPDSLAVSLGERATINCKASQNVGTAVAWYQQKPGQSPKLLIFSASIRYTGVPDRFSGSGSGTDFTLTISSLQAEDVAVYYCQQYSSSPYTFGGGTKVEIK
scFv (part 2 of 2): EVQLVQSGAEVKKPGASVKVSCKASGYTFTDYYMNWVRQAPGQRLEWMGIINPYNSGTSYNQKFRGRVTLTVDKSASTAYMELSSLRSEDTAVYYCSRYDYDYDVEGAMDYWGQGTTVTVSS
notes: as for B1
As for B2, the binding result is reported as “binds” in test [1]; “binds” in test [2]; “binds” in test [3]; “no binding” in test [4]; “binds” in test [5].

B3: Hab008L3H5-hFc (Fc fusion)
scFv (part 1 of 2): DIVMTQSPDSLAVSLGERATINCKASQNVGTAVAWYQQKPGQSPKLLIFSASIRYTGVPDRFSGSGSGTDFTLTISSLQAEDVAVYYCQQYSSSPYTFGGGTKVEIK
scFv (part 2 of 2): EVQLVQSGAEVKKPGASVKVSCKASGYTFTDYYMNWVRRAPGQRLEWMGIINPYNGGTSYNQKFRGRVTITVDKSASTAYMELSSLRSEDTAVYYCSRYDYDYDVEGAMDYWGQGTTVTVSS
notes: as for B1
As to B3, the binding result is “binds” in test [1]; “binds” in test [2]; “binds” in test [3]; “no binding” in test [4]; “binds” in test [5].

B4: Hab008L1H5-hFc (Fc fusion)
scFv (part 1 of 2): DIQMTQSPSSLSASVGDRVTITCKASQNVGTAVAWYQQKPGKSPKLLIFSASIRYTGVPSRFSGSGSGTDFTLTISSLQPEDFATYYCQQYSSSPYTFGGGTKVEIK
scFv (part 2 of 2): EVQLVQSGAEVKKPGASVKVSCKASGYTFTDYYMNWVRRAPGQRLEWMGIINPYNGGTSYNQKFRGRVTITVDKSASTAYMELSSLRSEDTAVYYCSRYDYDYDVEGAMDYWGQGTTVTVSS
notes: as for B1
Turning to B4, the binding result in test [1] is recorded as “binds”; in test [2] it was “binds”; in test [3] it was “binds”; in test [4], “no binding”; in test [5], “binds”.

B5: Hab015VL5VH1a-hFc (Fc fusion)
scFv (part 1 of 2): NIQMTQSPSSLSASVGDRVTITCKASENVGTYVSWYQQKPGKSPKLLIYGASNRYTGVPSRFSGSGSGTDFTLTISSLQPEDFATYYCGQFYSFPSTFGGGTKVEIK
scFv (part 2 of 2): EVQLVESGGGLVKPGGSLRLSCAASGITFSNFWMNWVRQAPGKGLEWVGQIRLKSDDYATHYAESVKGRFTISREDSKNTVYLQMNSLKTEDTAVYYCTTGYYFDYWGQGTTVTVSS
notes: humanized mab015, VL-linker-VH-human IgG1 Fc; also called Hab015L5H1a; not shown: linker; human IgG1 Fc fragment
As to B5, the binding result in test [1], in test [2], in test [3], in test [4] and in test [5] was “binds” in each case.

B6: Hab015VL5VH6a-hFc (Fc fusion)
scFv (part 1 of 2): NIQMTQSPSSLSASVGDRVTITCKASENVGTYVSWYQQKPGKSPKLLIYGASNRYTGVPSRFSGSGSGTDFTLTISSLQPEDFATYYCGQFYSFPSTFGGGTKVEIK
scFv (part 2 of 2): EVQLVESGGGLVKPGGSLRLSCAASGITFSNFWMNWVRQAPEKGLEWVGQIRLKSDDYATHYAESVKGRFTISREDSKNTVYLQMNSLKTEDTAVYYCTTGYYFDYWGQGTTVTVSS
notes: humanized mab015, VL-linker-VH-human IgG1 Fc; also called Hab015L5H6a; not shown: linker; human IgG1 Fc fragment
Take B6: the binding result in test [1], in test [2], in test [3], in test [4] and in test [5] was “binds” throughout.

B7: Hab015VL5VH5a-hFc (Fc fusion)
scFv (part 1 of 2): NIQMTQSPSSLSASVGDRVTITCKASENVGTYVSWYQQKPGKSPKLLIYGASNRYTGVPSRFSGSGSGTDFTLTISSLQPEDFATYYCGQFYSFPSTFGGGTKVEIK
scFv (part 2 of 2): EVQLVESGGGLVKPGGSLRLSCVASGITFSNFWMNWVRQAPGKGLEWVGQIRLKSDDYATHYAESVKGRFTISREDSKNTVYLQMNSLKTEDTAVYYCTTGYYFDYWGQGTTVTVSS
notes: humanized mab015, VL-linker-VH-human IgG1 Fc; also called Hab015L5H5a; not shown: linker; human IgG1 Fc fragment
In the case of B7, the binding result in test [1], in test [2], in test [3], in test [4] and in test [5] was “binds” each time.
